Data taken from the supplement of paper PMC9732359.
± gives the uncertainty stated by the source.

Assay: protein stability index of a GFP-peptide fusion (yeast GPS) (PSI 1-4); higher = more stable; sorted into four equal gates, so the index is relative within each strain
Summary of the method: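 Tiled 17-residue yeast protein peptides were fused downstream of GFP in a plasmid that also expresses Cherry, and the pooled library was carried in yeast. Mid-log cultures in leucine-free medium were sorted into four equal gates by GFP/Cherry fluorescence ratio, and plasmids from each gate were PCR-amplified and Illumina-sequenced, with reads assigned to strains by barcodes. The protein stability index for each peptide was each gate's read frequency times its gate number, summed.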

STLMPGGVDVGPSVESY [SNF5]
protein stability index (doa10∆): 1.63 ± 0.083 | protein stability index (pdr5∆): 1.87 ± 0.083 | protein stability index (san1∆): 2 ± 0.16 | protein stability index (ubr1∆): 2.68 ± 0.087

LIKDNSAMVTTAAAADI [SRB2]
protein stability index (pdr5∆): 1.78 ± 0.29

MKAVGEYMKRHPTTIES [SEC65]
protein stability index (doa10∆): 1.93 ± 0.17 | protein stability index (pdr5∆): 2.24 ± 0.23 | protein stability index (san1∆): 1.64 ± 0.3

SMNATMRNFSKQNQDSK [YDL088C/ASM4]
protein stability index (doa10∆): 2.86 ± 0.14 | protein stability index (pdr5∆): 2.99 ± 0.24 | protein stability index (san1∆): 1.94 ± 0.27 | protein stability index (ubr1∆): 2.84 ± 0.24

KQRFQGCNNLIKNISNR [ARP9]
protein stability index (doa10∆): 2.89 ± 0.07 | protein stability index (pdr5∆): 2.88 ± 0.048 | protein stability index (san1∆): 3.26 ± 0.063 | protein stability index (ubr1∆): 3.03 ± 0.048

EYLFKPQLISDKFSPED [ARP7]
protein stability index (doa10∆): 2.38 ± 0.053 | protein stability index (pdr5∆): 2.46 ± 0.042 | protein stability index (san1∆): 2.32 ± 0.056 | protein stability index (ubr1∆): 2.17 ± 0.041

ILEVGALASIQTFNFDS [RPN12]
protein stability index (doa10∆): 2.31 ± 0.095 | protein stability index (pdr5∆): 2.65 ± 0.18 | protein stability index (san1∆): 2.96 ± 0.17 | protein stability index (ubr1∆): 2.86 ± 0.077

SRCHLVTKDTKKYSSKN [SRP68]
protein stability index (doa10∆): 3.04 ± 0.092 | protein stability index (pdr5∆): 2.8 ± 0.1 | protein stability index (san1∆): 2.65 ± 0.11 | protein stability index (ubr1∆): 3.12 ± 0.072

HLLSINYGEKEERKRWA [PCI8]
protein stability index (doa10∆): 3.17 ± 0.11 | protein stability index (pdr5∆): 3.13 ± 0.096 | protein stability index (san1∆): 3.41 ± 0.18 | protein stability index (ubr1∆): 3.4 ± 0.095

ESKLSLETLFNRWHSES [FAS2]
protein stability index (doa10∆): 3.26 ± 0.084 | protein stability index (pdr5∆): 3.24 ± 0.1 | protein stability index (san1∆): 3.1 ± 0.064 | protein stability index (ubr1∆): 3.11 ± 0.065

SQYFKFKNDFNSFYYTS [RPN9]
protein stability index (doa10∆): 2.1 ± 0.075 | protein stability index (pdr5∆): 2.33 ± 0.06 | protein stability index (san1∆): 2.51 ± 0.084 | protein stability index (ubr1∆): 2.58 ± 0.056

NVEEEQIVPYIEKLTDG [BRR2]
protein stability index (doa10∆): 3.05 ± 0.061 | protein stability index (pdr5∆): 3.06 ± 0.06 | protein stability index (san1∆): 2.91 ± 0.071 | protein stability index (ubr1∆): 3.2 ± 0.061

TGKITKMFQDIRLSKIL [CDC53]
protein stability index (doa10∆): 2.73 ± 0.07 | protein stability index (pdr5∆): 3.03 ± 0.093 | protein stability index (san1∆): 2.66 ± 0.071 | protein stability index (ubr1∆): 2.86 ± 0.069

LDNSKMDYHFIFSYLQF [RGR1]
protein stability index (doa10∆): 2.45 ± 0.061 | protein stability index (pdr5∆): 1.72 ± 0.056 | protein stability index (san1∆): 1.89 ± 0.047 | protein stability index (ubr1∆): 1.8 ± 0.065

LNLDEIVACELILSGDT [YJL039C/NUP192]
protein stability index (doa10∆): 2.64 ± 0.08 | protein stability index (pdr5∆): 2.7 ± 0.084 | protein stability index (san1∆): 3.05 ± 0.096 | protein stability index (ubr1∆): 2.6 ± 0.12

TGALINNLEPRQTTSNT [RPN11]
protein stability index (doa10∆): 3.12 ± 0.1 | protein stability index (pdr5∆): 3.25 ± 0.15 | protein stability index (san1∆): 2.62 ± 0.15 | protein stability index (ubr1∆): 3.02 ± 0.076

FIKFKLIQQVPPGLDAL [CDC53]
protein stability index (doa10∆): 2.29 ± 0.067 | protein stability index (pdr5∆): 2.13 ± 0.11 | protein stability index (san1∆): 2.23 ± 0.13 | protein stability index (ubr1∆): 2.27 ± 0.095

IKKPKTYKYPSLKGVDP [RPL29]
protein stability index (doa10∆): 3.63 ± 0.29 | protein stability index (pdr5∆): 3.62 ± 0.2

HRLKLCKSLISENEDTK [CSE2]
protein stability index (doa10∆): 2.91 ± 0.17 | protein stability index (pdr5∆): 3.24 ± 0.27 | protein stability index (san1∆): 2.42 ± 0.2

PIAASTDLPIETAAMAS [RPN1]
protein stability index (doa10∆): 1.48 ± 0.041 | protein stability index (pdr5∆): 1.64 ± 0.052 | protein stability index (san1∆): 1.53 ± 0.06 | protein stability index (ubr1∆): 1.71 ± 0.058

ENHNGQSISNENDVKPI [SWI3]
protein stability index (doa10∆): 2.07 ± 0.054 | protein stability index (pdr5∆): 1.83 ± 0.051 | protein stability index (san1∆): 2.48 ± 0.069 | protein stability index (ubr1∆): 2.48 ± 0.045

ETSGVTTALLKDEEIEK [MED8]
protein stability index (doa10∆): 3.2 ± 0.097 | protein stability index (pdr5∆): 3.05 ± 0.18 | protein stability index (san1∆): 2.84 ± 0.17 | protein stability index (ubr1∆): 3.63 ± 0.11

TNLISKISLLRPSFQNN [SWP82]
protein stability index (doa10∆): 2.52 ± 0.05 | protein stability index (pdr5∆): 2.69 ± 0.05 | protein stability index (san1∆): 2.53 ± 0.071 | protein stability index (ubr1∆): 2.72 ± 0.064

HEVVQDDSFSLLRIQML [PCI8]
protein stability index (doa10∆): 2.7 ± 0.049 | protein stability index (pdr5∆): 2.96 ± 0.063 | protein stability index (san1∆): 2.74 ± 0.047 | protein stability index (ubr1∆): 2.84 ± 0.036

YVIHGIELLSDLINILE [LIN1]
protein stability index (pdr5∆): 2.74 ± 0.25 | protein stability index (ubr1∆): 2.43 ± 0.14

LDIKRVGSENVECTISI [SNF12]
protein stability index (doa10∆): 2.27 ± 0.067 | protein stability index (pdr5∆): 2.78 ± 0.066 | protein stability index (san1∆): 2.56 ± 0.056 | protein stability index (ubr1∆): 2.81 ± 0.065

QLEDESSRLEFVKGISR [YML103C/NUP188]
protein stability index (doa10∆): 3.45 ± 0.095 | protein stability index (pdr5∆): 3.2 ± 0.11 | protein stability index (san1∆): 3.33 ± 0.067 | protein stability index (ubr1∆): 3.21 ± 0.099

SIGEPGTQMTLKTFHFA [RPO31]
protein stability index (san1∆): 2.56 ± 0.096 | protein stability index (ubr1∆): 2.65 ± 0.17

MEKLDAKLNHLKKLEKF [SWI3]
protein stability index (doa10∆): 2.81 ± 0.13 | protein stability index (pdr5∆): 2.7 ± 0.1 | protein stability index (san1∆): 3.02 ± 0.12

NALYDTLLESNLCKIIE [RPN6]
protein stability index (doa10∆): 2.07 ± 0.068 | protein stability index (pdr5∆): 2.48 ± 0.079 | protein stability index (san1∆): 2.01 ± 0.065 | protein stability index (ubr1∆): 2.41 ± 0.082

EKAVEEKPAVKSYASLL [RPT3]
protein stability index (doa10∆): 2.89 ± 0.06 | protein stability index (pdr5∆): 3.02 ± 0.053 | protein stability index (san1∆): 2.92 ± 0.052 | protein stability index (ubr1∆): 2.96 ± 0.049

MSLQHEKVTIAPLVLLS [RPN8]
protein stability index (doa10∆): 1.19 ± 0.035 | protein stability index (pdr5∆): 1.28 ± 0.032 | protein stability index (san1∆): 1.2 ± 0.068 | protein stability index (ubr1∆): 1.21 ± 0.031

KPLADLRPLFTRYELYI [YLR335W/NUP2]
protein stability index (doa10∆): 2.4 ± 0.048 | protein stability index (pdr5∆): 2.04 ± 0.04 | protein stability index (san1∆): 2.09 ± 0.073 | protein stability index (ubr1∆): 2.02 ± 0.029

MAFRKSNVYLSLVNSYI [COB]
protein stability index (doa10∆): 2 ± 0.049 | protein stability index (pdr5∆): 2.08 ± 0.078 | protein stability index (san1∆): 1.96 ± 0.079 | protein stability index (ubr1∆): 2.36 ± 0.064

KNQLRDWIRFVSIRQNQ [RPL22B]
protein stability index (doa10∆): 1.51 ± 0.1 | protein stability index (pdr5∆): 1.64 ± 0.061 | protein stability index (ubr1∆): 1.29 ± 0.091

PDMYERKVENIRTILVN [MED7]
protein stability index (doa10∆): 1.32 ± 0.045 | protein stability index (pdr5∆): 1.65 ± 0.045 | protein stability index (san1∆): 1.46 ± 0.096 | protein stability index (ubr1∆): 1.36 ± 0.036

ADKIVDEFPELKEPVED [NUT2]
protein stability index (doa10∆): 3.71 ± 0.15 | protein stability index (pdr5∆): 3.52 ± 0.11 | protein stability index (san1∆): 3.23 ± 0.27 | protein stability index (ubr1∆): 3.63 ± 0.14

DFTLPEDFAPLLAEEEE [PRP8]
protein stability index (doa10∆): 3.42 ± 0.19 | protein stability index (pdr5∆): 3.64 ± 0.22 | protein stability index (san1∆): 3.23 ± 0.11 | protein stability index (ubr1∆): 3.2 ± 0.084

KIAERSLLLKNYLNDMH [SKP1]
protein stability index (doa10∆): 2.55 ± 0.12 | protein stability index (pdr5∆): 2.54 ± 0.07 | protein stability index (san1∆): 1.81 ± 0.17 | protein stability index (ubr1∆): 1.78 ± 0.067

ILRKELSEEKEVIFTDV [MCD1]
protein stability index (doa10∆): 2.66 ± 0.15 | protein stability index (pdr5∆): 3.02 ± 0.23 | protein stability index (san1∆): 2.32 ± 0.12 | protein stability index (ubr1∆): 2.73 ± 0.17

PTTNEPAKPALSFGTAT [YJL041W/NSP1]
protein stability index (doa10∆): 2.97 ± 0.074 | protein stability index (pdr5∆): 3.08 ± 0.063 | protein stability index (san1∆): 2.96 ± 0.053 | protein stability index (ubr1∆): 3.12 ± 0.042

KESWDPNTTKTKLRAFV [YGR119C/NUP57]
protein stability index (doa10∆): 3.5 ± 0.22 | protein stability index (pdr5∆): 2.93 ± 0.19 | protein stability index (san1∆): 3.37 ± 0.12 | protein stability index (ubr1∆): 2.77 ± 0.1

SSKTRNVLNRIQELEDQ [ITC1]
protein stability index (doa10∆): 1.35 ± 0.088 | protein stability index (pdr5∆): 1.16 ± 0.051 | protein stability index (ubr1∆): 1.18 ± 0.058

IHNTKLPAYSGEIGDFF [POP1]
protein stability index (doa10∆): 3.07 ± 0.06 | protein stability index (pdr5∆): 3.1 ± 0.062 | protein stability index (san1∆): 3.1 ± 0.047 | protein stability index (ubr1∆): 3.02 ± 0.06

KIVYIAPLKALVQEQVR [BRR2]
protein stability index (doa10∆): 1.4 ± 0.045 | protein stability index (pdr5∆): 1.59 ± 0.044 | protein stability index (san1∆): 1.41 ± 0.089 | protein stability index (ubr1∆): 1.3 ± 0.051

DQYDAERDFYHSLREYI [RPO31]
protein stability index (doa10∆): 3.33 ± 0.076 | protein stability index (pdr5∆): 3 ± 0.12 | protein stability index (san1∆): 3.07 ± 0.074 | protein stability index (ubr1∆): 3.3 ± 0.091

ILSLATEGCIGLSQTEA [MCD1]
protein stability index (doa10∆): 2.58 ± 0.056 | protein stability index (pdr5∆): 2.49 ± 0.068 | protein stability index (san1∆): 2.81 ± 0.09 | protein stability index (ubr1∆): 2.4 ± 0.062

FTGEKPIITGSTSTSSS [MED8]
protein stability index (doa10∆): 2.71 ± 0.062 | protein stability index (pdr5∆): 2.7 ± 0.054 | protein stability index (san1∆): 2.78 ± 0.052 | protein stability index (ubr1∆): 2.13 ± 0.043

MGRVRTKTVKRASKALI [RPS17A]
protein stability index (doa10∆): 3.05 ± 0.12 | protein stability index (pdr5∆): 1.87 ± 0.086 | protein stability index (san1∆): 3.1 ± 0.069 | protein stability index (ubr1∆): 1.52 ± 0.06

TGATSLFGSSNNNNNNN [YGL172W/NUP49]
protein stability index (doa10∆): 2.39 ± 0.046 | protein stability index (pdr5∆): 2.07 ± 0.038 | protein stability index (san1∆): 2.34 ± 0.056 | protein stability index (ubr1∆): 2.42 ± 0.043

TSEEQTKFLAKNGVIPE [SWP82]
protein stability index (doa10∆): 3.71 ± 0.26 | protein stability index (pdr5∆): 3.6 ± 0.23 | protein stability index (ubr1∆): 3.3 ± 0.098

LVEPSKVGQFDQVLNLC [FAS1]
protein stability index (doa10∆): 2.35 ± 0.13 | protein stability index (pdr5∆): 2.41 ± 0.09 | protein stability index (san1∆): 2.78 ± 0.11 | protein stability index (ubr1∆): 2.73 ± 0.16

LRLDGHTKSDERSELLR [SNF2]
protein stability index (doa10∆): 3.24 ± 0.081 | protein stability index (pdr5∆): 3.18 ± 0.084 | protein stability index (san1∆): 3.38 ± 0.079 | protein stability index (ubr1∆): 3.33 ± 0.078
